Assay results: publication PMC10827748

Molecular target: Smac/DIABLO, endogenous (human (endogenous in HEK293F and HEK293T))
Experiment: cryo-EM structure; FLAG-BIRC6 purified from HEK293F, cross-linked with 0.01% glutaraldehyde; global map 3.6 Å; a class with endogenous co-purified Smac in the central cavity at 4.7 Å

**Q.** With “Smac/DIABLO, endogenous (natural protein)” as the substance, how does the stoichiometry N read?
**A.** 2
